{"source": "patent US20190127434", "system": "K6UbKMRC011", "data": [{"substance": "USP1 (ubiquitin-specific protease 1)", "values": [{"measurement": "cleavage by USP1, SDS-PAGE analysis (10 mg/L enzyme, 37 C, 12 hours)", "result": "most of the refolded K6UbKMRC011 was cleaved by USP1 and separated into K6Ub and KMRC011"}, {"measurement": "cleavage by ubiquitin cleavage enzymes, SDS-PAGE analysis (10 mg/L enzyme, 37 C, 12 hours)", "result": "the refolded K6UbKMRC011 was cleaved by the ubiquitin cleavage enzymes shown in Table 2 and correctly separated into K6Ub and KMRC011"}, {"measurement": "on-column cleavage, amino terminal sequence analysis of the released KMRC011", "result": "the USPI clearly cleaved the immediate side of K6Ub of K6UbKMRC011 so that only KMRC011 was separated and purified"}]}]}
